Data: PMC6978347, “Structural basis of p62/SQSTM1 helical filaments and their role in cellular cargo uptake” (Nature Communications, 2020)

T1: MEKK3^43–127 (MEKK3–PB1) (UniProt Q99759 43-127)
T1 construct: MEKK3, residues 43-127 (PB1 domain); The His6 tag was kept for the gold-labelling and co-pelletation experiments; source: E. coli BL21 (DE3), expressed from pETM11, purified; not shown: His6, N-terminal, kept
T1 sequence (looked up): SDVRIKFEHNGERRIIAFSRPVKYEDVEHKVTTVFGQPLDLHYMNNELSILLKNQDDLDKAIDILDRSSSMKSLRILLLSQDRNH

T2: MBP-tagged wild-type AtNBR1–PB1^1–94 (Arabidopsis thaliana, UniProt Q9SB64 1-94)
T2 construct: NBR1 autophagy receptor, Arabidopsis thaliana (AtNBR1), residues 1-94 (PB1 domain); Held on amylose resin in the pull-down; also called MBP–AtNBR1–PB1; source: E. coli BL21 (DE3), expressed as described for AtNBR1–PB1, buffer-exchanged; not shown: MBP, N-terminal, kept
T2 sequence (looked up): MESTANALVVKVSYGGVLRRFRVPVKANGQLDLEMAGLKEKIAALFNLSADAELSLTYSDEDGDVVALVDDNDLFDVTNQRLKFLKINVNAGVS


What was measured:
[1] = target: the molecule itself; assay: co-sedimentation; co-pelleting assay: p62-PB1^1–122 with His6-tagged PB1 partner, 1 h on ice, 49,000 g, 4 °C, 30 min; pellet and supernatant on SDS-PAGE, Coomassie
[2] = target: the molecule itself; assay: co-sedimentation; sedimentation (pelletation) assay of single purified PB1 domains by ultracentrifugation; soluble and pellet fractions on SDS-PAGE
[3] = target: T1, MEKK3^43–127 (MEKK3–PB1); assay: not stated; binding of NBR1–PB1 to MEKK3 'also measured'; method not given; settings: both partners purified
[4] = target: T2, MBP-tagged wild-type AtNBR1–PB1^1–94; assay: pull-down; MBP–AtNBR1–PB1 on amylose resin, 4:1 molar excess of AtNBR1–PB1 (mutant); wash 15 mM HEPES pH 7.5, 500 mM NaCl; eluted with 30 mM maltose; SDS-PAGE; settings: both partners purified

Row | Binder | binding result [2] | other results
1 | p62-PB1^1–122 (p62/SQSTM1 residues 1–122) (domain or fragment, human, UniProt Q13501 1-122, looked up, Forms helical filaments; also called p62-PB1 filaments; source: E. coli BL21 (DE3), purified (Ni-NTA, 3C protease cleavage, Talon resin); not shown: His6, N-terminal, cleaved; MBP, N-terminal, cleaved) MASLTVKAYLLGKEDAAREIRRFSFCCSPEPEAEAEAAAGPGPCERLLSRVAALFPALRPGGFQAHYRDEDGDLVAFSSDEELTMAMSYVKDDIFRIYIKEKKECRRDHRPPCAQEAPRNMV | – | binding result [1]: binds
2 | TFG1^1–95 (Trk-fused gene 1, TFG1–PB1) (domain or fragment, human, UniProt Q92734 1-95, looked up, TFG1 (Trk-fused gene 1), human, residues 1-95 (PB1 domain); source: E. coli BL21 (DE3), purified (Ni-NTA, 3C protease cleavage, Talon resin); not shown: His6, N-terminal, cleaved; MBP, N-terminal, cleaved) MNGQLDLSGKLIIKAQLGEDIRRIPIHNEDITYDELVLMMQRVFRGKLLSNDEVTIKYKDEDGDLITIFDSSDLSFAIQCSRILKLTLFVNGQPR | binds | –
3 | p62^1–102 (domain or fragment, human, UniProt Q13501 1-102, looked up, p62/SQSTM1, human, residues 1-102 (PB1 domain); also called p62 PB1 domain 1–102; source: expressed and purified) MASLTVKAYLLGKEDAAREIRRFSFCCSPEPEAEAEAAAGPGPCERLLSRVAALFPALRPGGFQAHYRDEDGDLVAFSSDEELTMAMSYVKDDIFRIYIKEK | binds | –
4 | NBR1^1–85 (human NBR1–PB1) (domain or fragment, UniProt Q14596 1-85, looked up, NBR1, human, residues 1-85 (PB1 domain); The His6 tag was kept for the gold-labelling and co-pelletation experiments; also called HsNBR1^1–85; wild-type NBR1; source: E. coli BL21 (DE3), expressed from pETM11, purified; not shown: His6, N-terminal, kept) MEPQVTLNVTFKNEIQSFLVSDPENTTWADIEAMVKVSFDLNTIQIKYLDEENEEVSINSQGEYEEALKMAVKQGNQLQMQVHEG | – | Kd [3]: 13.3 µM
5 | AtNBR1^1–94 (AtNBR1–PB1) (domain or fragment, Arabidopsis thaliana, UniProt Q9SB64 1-94, looked up, NBR1 autophagy receptor, Arabidopsis thaliana (AtNBR1), residues 1-94 (PB1 domain); Forms helical filaments; also called AtNBR1–PB1^1–94; NBR1^1–94 from Arabidopsis thaliana; source: E. coli BL21 (DE3), purified (Ni-NTA, 3C protease cleavage, Talon resin); not shown: His6, N-terminal, cleaved; MBP, N-terminal, cleaved) MESTANALVVKVSYGGVLRRFRVPVKANGQLDLEMAGLKEKIAALFNLSADAELSLTYSDEDGDVVALVDDNDLFDVTNQRLKFLKINVNAGVS | binds | binding result [4]: binds
